Assay results published in patent US7303752B2, “Hookworm vaccine” (The George Washington University, priority 2001, dated 2007).
Values joined by “and” are separate entries in the source; they are usually repeats but may differ in a detail not shown here. Equal entries are not always repeated.

B1: Ac-MTP-2: A. caninum astacin protease antigen, SEQ ID NO: 42; Pichia pastoris expressed (protein, listed as Ancylostoma caninum)
chain: MKYFVLCFCAFFVVNADEEDDLPRNPLWDAYKDDNGKYVIPYVINGSYGEEKKVLFEMMDEIDKNTCVRFIPRSTEQDYIEIVNRLGEGTGAVVGKPGGKSIVLLESSKILNDPTPAPVMQTLMKIIGLPPEHIRPERKDHIKIHWENIEKGYEAFFALSSVKPDPYGIPYDYYSIMHYKKDAFAKPGTITMETLDKRYQDIIGNQEKPSKLDYKKICTKYKCDICMGEKMKY
B2: Ac-GST: A. caninum glutathione S transferase, SEQ ID NO: 77; Pichia pastoris expressed (protein, listed as Ancylostoma caninum)
chain: MVHYKLTYFNGRGLGECARQLFALADQQYEDIRVTHEDFPEIKPNLPFGQLPLLNEDGKELAQSNAINRYLARKFGFAGKTPFEEALVDSLADQMTDYRVEIKPFVYTAYGHQKFGDLETLKKDVMLPARDKFLGFITKFLKNNPSGFLVGDSVTWIDLLLAEHASDIQSKVPEYLEGFPEVKAHMEKVRSIPKLKKWIETRPETHF
B3: Ac-MTP-1: A. caninum L3 astacin zinc metalloprotease, SEQ ID NO: 16 (also listed as SEQ ID NO: 40); E. coli fusion protein (protein, listed as Ancylostoma caninum)
chain: MRVLLLLLLLSICASAGFLDTKFGQKIKKTLDKIKAVLNGTALIAIREKFIRLREKIKAKLTLSPARKAILDEVMKHIKMIKKDKIQEKGDSIDEINEKSAIGQLLYQGDIVLTEKQAQQITEDIENDKGDREKRQAFRDRNYPRTLWSKGVYFHFHRNATPEVRSVFVKGAKLWMKDTCIDFFESNSAPDRIRVFKENGCWSYVGRLGGEQDLSLGEGCQSVGTAAHEIGHAIGFYHTHARHDRDNFITFNAQNVKPDWLDQFTLQTPATNENYGITYDYGSIMHYGANSASQNGRPTMVPHDPKYVETLGINKHYDCTKNCDPATSAQCKMGGFPHPRDCTRCICPSGYGGKLCDQKPAGCGSIYQATNQYQTLHDEIGDKRAGQRPREDMDFCYYWITAPKGSKIEIKIAGLSQGAAVEGCQYWGVEIKTHADQRLTGYRFCAPEDVGVRLVSNFNIVPIITYNIFYATYVDIQYRIVGDNVGGPMPQPQPNSNCVDNEQCATLVRTKNFCQSRFFTSSVKRGLCPKSSGFCR
B4: Ac-CYS: A. caninum cystatin antigen, SEQ ID NO: 100; Pichia pastoris expressed (protein, listed as Ancylostoma caninum)
chain: MPYLAFIVALLACTVMSGHGQMTGGLTKQDPNDPEHMARAWKAAKGINEDASNAGPYHMIPIKIVKAESQVVAGVRYIFEVLFGESTCKKGHMAATELSASNCELKEGGNRALYKVELWEKPWENFEQFNVEKIRNVAAGEQI

What was measured:
Assay type in all cases: in vivo, dog
[1] = tested on: A. caninum; assay: Canine vaccine trial HV-12, percutaneous challenge with 500 A. caninum L3; settings: for Adult Hookworm Worm Counts, Intestine, Male, Average / Adult Hookworm Worm Counts, Intestine, Female, Average / Adult Hookworm Worm Counts, Total, Average: group average; for Adult Hookworm Worm Counts, Intestine, Male, Average: AS03 control 64; for Adult Hookworm Worm Counts, Intestine, Female, Average: AS03 control 71; for Adult Hookworm Worm Counts, Total, Average: AS03 control 137
Method: (§1) Brief Outline of Study Sections: Purpose bred beagles were randomized into five groups. […] groups were given one of three candidate vaccines: Ac-Cystatin, Ac-MTP-2 and Ac-GST in combination with the adjuvant ASO3. One group will serve as the negative control receiving the adjuvant only. Another group will be a positive control immunized with irradiated infective larvae. Each animal's specific antibody response was evaluated by direct ELISA using serum taken prior to the infective challenge. Cellular immune responses were assessed by peripheral (blood cells) lymphoproliferative responses to specific recombinant antigens and/or crude extract of infective larvae (L3) or adult worms. Local cellular immune responses were performed post mortem with lymphocytes extracted from mesenteric lymph nodes and, if considered, spleen. After immunization, animals were challenged with a known number dose of infective third stage larvae of A. caninum. Quantitative ova counts, used to evaluate worm burden, were determined from fecal samples collected three times per week. […] Tissues from different organs were examined macro and microscopically to assess any consequence of the vaccine, parasite or immune related lesions.
(§2) Administration of Test and Control Articles: The vaccines and adjuvant were administered intramuscularly (IM) […] beginning when the dogs are 62+/−4 days old. The vaccines are boosted at 21+/−3-day intervals. Four doses of the vaccines were given 21 days apart (days 0, 21, 42, and […]). The dogs were challenged percutaneously with 500 A. caninum L3, 14 days after the final vaccination.
Challenge Infection: Ancylostoma caninum larvae were cultured from the eggs collected in the feces of infected dogs. All hookworms in the infective challenge were approximately equal age (17±7 days). The species identity of the infective larva dose were validated using PCR DNA amplification and specific oligonucleotide primers. Overnight-collected feces of A. caninum-infected dogs were cultured, extracted and counted. All dogs were infected by the footpad method with the same dose (500+/−5%, of 3rd stage larvae of A. caninum. Larval challenge occurs on one of three consecutive days (at age 120+/−9 days) in 5 series. To minimize the difference in the infective L3 doses, each series included one dog from each (A-E group). […]
Adult Worm Count. Adult worms retained in the small and large intestines were collected. The small and large bowel will be collected and the small intestine will be suspended (the large bowel will not be suspended) in a container and incubated for at least two hours at 35° C. saline to collect the adult parasites. The adult worms were separated from the intestinal contents, counted, and preserved in formalin for subsequent count and analysis of sex, length and weight. Results and Analysis

[2] = tested on: antigen-specific IgG1 and IgG2; assay: Antibody titers in HV-12 (Ac-CYS, Ac-MTP-2, Ac-GST in AS03, irradiated L3); settings: for Antibody titers, IgG1, GEOMEAN / Antibody titers, IgG2, GEOMEAN: geometric mean of group; for Antibody titers, IgG1 / Antibody titers, IgG2: individual dogs, after four immunizations, L3 Extract = group E dogs vaccinated with irradiated L3
Method: as §1, §2
Serum Samples for Quantitative ELISA Antibody Titers: Animals treated with vaccines containing foreign proteins develop an immune response resulting in an increased level of high affinity serum antibodies that are directed against the antigen. […] White blood cells were collected for immunological measurements nine (9) days after the last boost and at the time of euthanasia to address the cellular immune response status and cytokine production upon in vitro restimulation of lymphocytes.

[3] = tested on: A. caninum; assay: Canine vaccine trial with Ac-MTP-1, subcutaneous challenge with 500 A. caninum L3
Text: To test whether Ac-MTP-1 could be an effective vaccine, two groups of five (5) purpose-bred male beagles 8+1 wk of age were vaccinated either with the recombinant (expressed and isolated from Escherichia coli) fusion protein formulated with AS02A adjuvant, or adjuvant alone. The composition of AS02A, which has been successfully used in several malaria vaccine clinical studies, is described elsewhere (Lalvani et al, 1999; Bojang et al, 2001; Kester et al, 2001). Details of the animal husbandry and housing conditions were reported previously (Hotez et al, 2002a). The recombinant fusion protein containing a polyhistidine tag was purified from washed E. coli inclusion bodies that were solubilized in 6 M guanidine-HCl in 10 mM Tris HCl, pH 8.0. The solubilized inclusion bodies were processed in 5-10 ml batches by gel filtration chromatography (Sephacryl S-300, 26/60 gel filtration column [Amersham Pharmacia] pre-equilibrated in a buffer containing 0.1 NaH2PO4, 10 mM Tris-HCl and 6 M guanidine) at room temperature (flow rate of 2 ml/minute). Selected fractions containing Ac-MTP-1 (as determined by analysis on sodium dodecyl sulfate-polyacrylamide gel electrophoresis [SDS-PAGE]) were pooled, refolded according to the method of Singh et al (2001), and then loaded onto a 5 ml Hi-Trap IMAC column (Amersham Pharmacia) charged with ZnCl2 and equilibrated in 50 mM sodium phosphate pH 7.2, 1 M urea, and 0.5 M NaCl. The column was subsequently washed with 15 column volumes of equilibration buffer, and the bound protein was eluted with 50 mM sodium phosphate pH7.2, 1 M urea, 0.5 M NaCl, and 50 mM ethylenediamine tetraacetic acid (EDTA). Eluted samples containing protein were pooled and dialyzed against 10 mM Tris-HCl pH 8.0, 5% glycerol, 1 mM dithiothreitol, and 2 mM EDTA.
The recombinant Ac-MTP-1 fusion protein was mixed with SBAS2 adjuvant and administered to each of five dogs in four intramuscular injections on days 1, 4, 43, and 50. […] Antigen-specific canine IgG2 and IgE antibodies were measured by indirect enzyme-linked immunosorbent assay (ELISA) as described previously (Hotez et al, 2002a). […] Quantitative hookworm egg counts (McMaster technique) on each dog were obtained 3 days per wk beginning on day 12 post-infection (PI). Five wk post-infection, the dogs were killed by intravenous barbituate injection, and the adult hookworms were recovered and counted from the small and large intestines at necropsy (Hotez et al., 2002c). The statistical significance of differences between adult hookworm burdens was determined using the Anova test, as were differences in hematological parameters and in quantitative hookworm egg counts. Comparisons of hookworm burden and egg counts with antibody titers were measured using Spearman rank order (nonparametric) correlations. […]

Row | Molecule | Adult Hookworm Worm Counts, Intestine, Male, Average [1] | Adult Hookworm Worm Counts, Intestine, Female, Average [1] | Adult Hookworm Worm Counts, Total, Average [1] | Adult Hookworm Worm Counts, Colon, Female ([1]; individual dogs) | Adult Hookworm Worm Counts, Colon, Male ([1]; individual dogs) | Adult Hookworm Worm Counts, Intestine, Female ([1]; individual dogs) | Adult Hookworm Worm Counts, Intestine, Male ([1]; individual dogs) | Adult Hookworm Worm Counts, Total ([1]; individual dogs) | Antibody titers, IgG1, GEOMEAN [2] | Antibody titers, IgG2, GEOMEAN [2] | Antibody titers, IgG1 [2] | Antibody titers, IgG2 [2] | other results
1 | B1 | 61 | 60 | 132 | 10 and 3 and 2 and 15 and 0 | 11 and 2 and 1 (2×) and 9 | 71 and 51 and 41 and 65 and 73 | 64 (2×) and 49 and 41 and 87 | 156 and 105 and 85 and 153 and 161 | 62,850 | 121,500 | 121,500 (2×) and 40,500 (3×) | 364,500 and 121,500 (3×) and 40,500 | 
2 | B2 | 34 | 44 | 83 |  |  |  |  |  | 13,500 | 50,452 | 13,500 |  | worm burden reduction relative to AS03 controls ([1]; dog, in vivo, listed as GST): 40% and 41%; Adult Hookworm Worm Counts, Colon, Female ([1]; individual dogs, listed as GST): 0 (2×) and 3 and 4 and 5; Adult Hookworm Worm Counts, Colon, Male ([1]; individual dogs, listed as GST): 0 (2×) and 4 and 7 and 2; Adult Hookworm Worm Counts, Intestine, Female ([1]; individual dogs, listed as GST): 81 and 26 and 36 (2×) and 41; Adult Hookworm Worm Counts, Intestine, Male ([1]; individual dogs, listed as GST): 50 and 34 and 19 and 33 (2×); Adult Hookworm Worm Counts, Total ([1]; individual dogs, listed as GST): 131 and 67 and 55 and 80 and 81; Antibody titers, IgG2 ([2]; listed as GST): 40,500 (4×) and 121,500
3 | B3 |  |  |  |  |  |  |  |  |  |  |  |  | reduction in worm burden, dog with highest versus dog with lowest antibody titer ([3]; dog, in vivo): 50%; hookworms recovered from the dog with the highest antibody titer ([3]; single vaccinated dog): 98 hookworms; hookworms recovered from the dog with the lowest antibody titer ([3]; single vaccinated dog): 189 hookworms; number of adult hookworms recovered (mean+standard deviation) ([3]; vaccinated dogs, 5 wk after 500 L3 s.c., control dogs 143+30, not significant): 154+34 hookworms
4 | B4 | 49 | 56 | 107 | 0 (3×) and 5 and 2 | 0 (3×) and 1 and 3 | 56 and 85 and 29 and 67 and 41 | 44 and 81 and 38 and 48 and 36 | 100 and 167 and 67 and 124 and 79 | 121,500 | 364,500 | 121,500 (3×) and 40,500 and 364,500 | 364,500 (3×) and 121,500 and 1,093,500 | Adult Hookworm Worm Counts, Intestine, Unk. Sex ([1]; individual dogs): 1
